We go through 4 molecules from patent US11492376B2, “Toxoplasma gondii GRA8-derived recombinant peptides and composition for preventing or treating cancer comprising the same” (Industry—University Cooperation Foundation Hanyang …, priority 2019, dated 2022).

Assay [1] deals with mitochondrial targeting of GRA8. The experiment in a line: Subcellular fractionation: mitochondrial localization of GRA8. The assay is classed as cell-based. The following applies: 10 μM peptide, within 6 hours of incubation; 293T cells or BMDM. Here is the method: (§1) FIGS. 2A, 2B, 2C, 2D and 2E show the design and expression of an ATRAM-conjugated multifunctional GRA8 peptide (rATRAM-G8-M/AS)-based protein [(A) Subcellular fractionation of 293T cells was performed by expression of GST-GRA8 WT or incubation of WT rGRA8 with (1 μg/ml) BMDM and treatment with several Tat-GRA8 peptides for 6 hours (10 μM). Mitochondrial and cytosolic fractions were fractionated and analyzed for expression of GST by IB. The purity of the fractions was confirmed by blotting for VDAC (mitochondrial protein) and actin (cytosolic protein). (B) A mammalian GST-GRA8 construct was transfected into 293T cells for 12 hours with V5-ATP5A1 or Flag-SIRT3, and treated with several Tat-GRA8 peptides (10 μM) for 6 hours. The 293T cells were used for GST pulldown, followed by IB with αV5 or αFlag. WCL was used for IB with αGST, αV5, αFlag or αActin. (C) The schematic design of ATRAM-GRA8-M/AS and its mutants [ATRAM-G8-M/AS (SEQ ID NO: 1), ATRAM-G8-M (SEQ ID NO: 2), ATRAM (SEQ ID NO: 3)]. (D) 6×His-rATRAM-GRA8-M/AS purified with bacteria and its mutants were analyzed by Coomassie blue staining (left) or αHis immunoblotting (IB; right). (E) BMDM was incubated with rATRAM-GRA8-M/AS and its mutant (20 μg/ml) for indicated times, and cell viability was then measured by an MMT assay. Data represents four independent experiments with similar results (A, B, D and E)]. […]

In assay [2] the test system is GRA8-ATP5A1/SIRT3 interaction. As to the kind of experiment: GST pulldown of GRA8-ATP5A1/SIRT3 interaction in 293T cells. It is filed as cell-based. The settings on record: 10 μM peptide, within 6 hours of incubation. On the procedure:
as §1

In the next assay the test system is ATP5A1, SIRT3 and ATP5C1. As to the kind of experiment: Immunoprecipitation/immunoblotting in HCT116 cells. It is filed as cell-based, human. The settings on record: IP/IB. On the procedure: (§2) FIGS. 1A, 1B and 1C: confirms that rGRA8 treatment increases HCT116 cell death by mitochondria pathways [(A and B). Various cancer cells were incubated with WT rGRA8 (20 μg/ml) and its mutants for indicated times and then cell viability was measured by MTT analysis (upper) and αATP5A1, αSIRT3 or αActin immunoblotting (lower) was performed. […] The cells were incubated with WT rGRA8 for indicated times and subjected to IP with αLys-AC or αHis and IB with αATP5A1, αATP5C1, αSIRT3, αPGC-1, αPKCα or αActin. Data represents five independent experiments with similar results. Significant differences were determined by comparison with rVector treatment (** P<0.01; *** P<0.001)].
For immunoprecipitation, cells were obtained, and then lysed in an NP-40 buffer supplemented with a complete protease inhibitor cocktail (Roche). After pre-purification with A/G agarose beads at 4° C. for 1 hour, a whole cell lysate was used for immunoprecipitation with indicated antibodies. […]
For immunoblotting, polypeptides were subjected to electrophoresis (PAGE) with an SDS-polyacrylamide gel, and then transferred to a PVDF membrane (Bio-Rad) for separation. […] Antibody binding was visualized by chemiluminescence (ECL; Millipore) and detected by a Vilber chemiluminescence analyzer (Fusion SL 3; Vilber Lourmat).
(Immunoblotting shows a protein as a band on a membrane.)

Another assay relates to HT-29. As to the kind of experiment: MTT assay of cell viability, HT-29 cells. It is filed as cell-based, human. The following applies: 20 μg/ml, over time. On the procedure:
as §2
(§3) As described in Non-Patent Document 1, the cell viability for a non-treated group was measured by an MTT assay. After incubation for an indicated time, 5 mg/ml of a 3-(4,5-dimethyl thiazol-2-yl)-2,5-diphenyltetrazoliumbromide (MTT) solution was added to a medium, and the cells were further incubated for 4 hours. Subsequently, all of the medium was removed, the same volume of a dimethyl sulfoxide (DMSO) solution was added for 15 minutes to dissolve formazan. Using a UV/VIS spectrophotometer, each well of a plate was measured at 540 nm to measure relative cell viability.
For orientation: Tetrazolium assays rely on reduction of a dye to a coloured formazan, in cell work by metabolically active cells.

Another assay relates to HCT116 cells. The experiment in a line: MTT assay of cell viability, HCT116 cells. It is filed as cell-based, human. On the procedure:
as §2
FIGS. 4A, 4B, 4C, 4D and 4E show HCT116 cell death by rATRAM-GRA8-M/AS-induced mitochondrial activation [(A and B) HCT116 cells were incubated with WT rGRA8 or rATRAM-GRA8-M/AS and its mutants for indicated times, and then cell viability was measured with an MTT assay. […] The cells were stimulated with rATRAM-GRA8-M/AS for 1 day and subjected to enzymatic activity of OXPHOS V, and (C) MitoTracker fluorescence signals were assessed by flow cytometry. (D) A bar graph indicates a mitochondrial mass (MFI), and (E) the mtDNA content of BMDM was measured by quantitative real-time PCR. The mtDNA content was normalized by nuclear DNA. Significant differences were determined by comparison with control treatment (** P<0.01; *** P<0.001). Data represents five independent experiments with similar results].
as §3

A further assay relates to HCT116 xenografts. The experiment in a line: HCT116 xenograft mouse model, antitumor activity. The assay is classed as in vivo, nude mouse. The following applies: HCT116 xenograft mice.

In the case of “GRKKRRQRRR-G-ATATTTTTTR (GRKKRRQRRRGATATTTTTTR; Tat-GRA8-(213-222)) [Tat-GRA8 (aa 213-222)]”, the “blocking of mitochondrial targeting of GRA8” value in assay [1] is recorded as “can effectively block mitochondrial targeting”.

As to “GRKKRRQRRR-G-YRFTVQTTQN (GRKKRRQRRRGYRFTVQTTQN; Tat-GRA8-(260-269)) [Tat-GRA8 (aa 260-269)]”, in assay [2], the “prevention of GRA8-ATP5A1/SIRT3 interaction” value was “able to effectively prevent”.

As for GRKKRRQRRR (Tat) [reference compound], in assay [1], the “blocking of mitochondrial targeting of GRA8” value is “impossible”.

B1: rGRA8: recombinant His-tagged Toxoplasma gondii dense granule antigen 8, 269 amino acids; conventional GRA8-derived peptide (protein)
chain: MALPLRVSATVFVVFAVFGVARAMNGPLSYHPSSYGASYPNPSNPLHGMPKPENPVRPPPPGFHPSVIPNPPYPLGTPAGMPQPEVPPLQHPPPTGSPPAAAPQPPYPVGTPGMPQPEIPPVHRPPPPGFRPEVAPVPPYPVGTPTGMPQPEIPAVHHPFPYVTTTTTAAPRVLVYKIPYGGAAPPRAPPVPPRMGPSDISTHVRGAIRRQPATATTTTTTRNVLLRTAILAAAAATLIALFRQRPLFTEGVRMFPDFQYRFTVQTTQN
modifications: left off: small tags and cut ends
notes: recombinant His-tagged Toxoplasma gondii dense granule antigen 8, 269 amino acids; conventional GRA8-derived peptide
For the molecule B1, in the assay with ATP5A1, SIRT3 and ATP5C1, the ATP5A1 deacetylation result is listed as “increased ATP5A1 deacetylation”; the “binding of rGRA8 to ATP5A1, SIRT3 and ATP5C1” value is “significantly increased”. Besides, the “cell death in HT-29” value in the assay on HT-29 is reported as “induced cell death”. In addition, the “cell death in HCT116” value in the assay on HCT116 cells (20 μg/ml, over time, MTT) is “induced cell death”. In the assay with HCT116 cells (HCT116 cells, MTT (FIG. 4A)), the “IC50 (HCT116 cell death)” value came to 20 µg/mL. Besides, in the assay on HCT116 xenografts, the “IC50 (antitumor activity in xenograft)” value was 10 mg/kg.
